Literature values as cited in patent publication US20040115213A1, “Use of IL-2 receptor antibodies” (priority 2002, published 2004).

Legend:
[1] = patients given amphotericin-B
[2] = human patients
[3] = monkeys; Hakimi et al.

Molecule	patients experiencing some degree of nephrotoxicity [1]	immunogenicity (HAMA response) [2]	immunogenicity relative to mouse antibody [3]
CC1OC(O[C@H]2/C=C/C=C/C=C/C=C/C=C/C=C/C=C/[C@H](C)[C@@H](O)[C@@H](C)[C@H](C)OC(=O)C[C@H](O)C[C@H](O)CC[C@@H](O)[C@H](O)C[C@H](O)C[C@]3(O)C[C@H](O)C(C(=O)O)[C@H](C2)O3)C(O)C(N)C1O (stereo partly drawn) [amphotericin-B, [1R-(1 R *,3 S *, 5 R *, 6 R *,9 R *,11 R *,15 S *,16 R *,17 R *,18 S *, 19 E,21 E, 23 E,25 E, 27 E,29 E,31 E,33 R *,35 S *,36 R *,37 S *)]-33-[(3-Amino-3,6-dideoxy-(beta)-D-mannopyranosyl)oxy]-1,3,5,6,9,11,17,37-octahydroxy-15,16,18-trimethyl-13-oxo-14,39-dioxabi-cyclo[33.3.1]nonatriaconta-19,21,23,25,27,29,31-heptaene-36-carboxylic acid]	Over 80%		
humanized anti-Tac: humanized monoclonal antibody that binds to the p55 subunit of the human IL-2 receptor, described in U.S. Pat. No. 5,530,101		(essentially) non-immunogenic	reduced immunogenicity relative to mouse anti-Tac
